{
  "source": "IntAct's records for PubMed 25601757",
  "data": [
    {"biological_target": "wt1_human WT1 (UniProt P19544)", "sequence (P19544 whole entry)": "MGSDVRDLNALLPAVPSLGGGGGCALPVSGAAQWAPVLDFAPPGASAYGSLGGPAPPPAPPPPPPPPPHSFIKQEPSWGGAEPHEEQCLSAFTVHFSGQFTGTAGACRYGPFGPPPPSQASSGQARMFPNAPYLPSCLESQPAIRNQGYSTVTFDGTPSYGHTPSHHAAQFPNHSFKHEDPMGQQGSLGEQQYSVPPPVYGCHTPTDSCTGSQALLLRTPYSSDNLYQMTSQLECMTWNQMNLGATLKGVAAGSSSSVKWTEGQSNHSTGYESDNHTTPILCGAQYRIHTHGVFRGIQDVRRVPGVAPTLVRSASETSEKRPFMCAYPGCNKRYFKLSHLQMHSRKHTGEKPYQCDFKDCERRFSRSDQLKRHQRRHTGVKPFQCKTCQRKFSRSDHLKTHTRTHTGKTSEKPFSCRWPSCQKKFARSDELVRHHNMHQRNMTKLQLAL", "values": [
      {"substance": "Methylcytosine dioxygenase TET2 (Homo sapiens), Q6N021 A1505T", "effect of a mutation on the interaction": "disrupting interaction strength"},
      {"substance": "Methylcytosine dioxygenase TET2 (Homo sapiens), Q6N021 D1242V", "effect of a mutation on the interaction": "disrupting interaction strength"},
      {"substance": "Methylcytosine dioxygenase TET2 (Homo sapiens), Q6N021 D1314G", "effect of a mutation on the interaction": "with no effect"},
      {"substance": "Methylcytosine dioxygenase TET2 (Homo sapiens), Q6N021 F1368L", "effect of a mutation on the interaction": "decreasing interaction strength"},
      {"substance": "Methylcytosine dioxygenase TET2 (Homo sapiens), Q6N021 G1256D", "effect of a mutation on the interaction": "disrupting interaction strength"},
      {"substance": "Methylcytosine dioxygenase TET2 (Homo sapiens), Q6N021 G1861R", "effect of a mutation on the interaction": "disrupting interaction strength"},
      {"substance": "Methylcytosine dioxygenase TET2 (Homo sapiens), Q6N021 L1340R", "effect of a mutation on the interaction": "decreasing interaction strength"},
      {"substance": "Methylcytosine dioxygenase TET2 (Homo sapiens), Q6N021 P1617H", "effect of a mutation on the interaction": "disrupting interaction strength"},
      {"substance": "Methylcytosine dioxygenase TET2 (Homo sapiens), Q6N021 R1302G", "effect of a mutation on the interaction": "disrupting interaction strength"},
      {"substance": "Methylcytosine dioxygenase TET2 (Homo sapiens), Q6N021 T1884A", "effect of a mutation on the interaction": "disrupting interaction strength"}
    ]}
  ]
}
